In the RNAGym collection of RNA variant scans (doi:10.1073/pnas.2313332121):

B1: TPR t1 (parent)
chain: GACCAAUCUGCCCUCAGAGCUCGAGAACAUCUUCGGAUGCAGAGGAGGCAGGCUUCGGUGGCGCGAUAGCGCCAACGUCCUCAACCUCCAAUGCAUCCCACCACAUGAUGAUGCCUGAAGAGCCUUGGUUUUUUG

Variants of: B1
Experiment: polymerase ribozyme fitness, log enrichment relative to wild type (log ratio); higher = more active; in vitro selection for triplet polymerase activity
Method in brief: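 Both subunits of a heterodimeric triplet polymerase ribozyme were given their own mutant library, built by PCR and transcribed. Each library was annealed with a biotinylated primer, the partner subunit and triplets, incubated frozen at −7 °C, and its extended constructs gel-excised, captured on streptavidin beads and amplified by RT-PCR, all in one round done in triplicate. Fitness is the logarithm of genotype enrichment relative to wild-type enrichment, with replicates averaged by inverse-variance weighting. That logarithm is base 2, and Illumina-sequenced genotypes needed ≥10 input reads and ≥1 read per output.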

In order of rising “polymerase ribozyme fitness (log ratio)” value:
1. GACCAAUCUGCCCUCAGAGCUCGAGAAGGUCUUCGGAUGCAUAAGAGGCAGGCUUCGGUGGCGCGAUAGCGCCAACGUCCUCUACCUCCAAUGCAUCCCACCACAUGAUGAUGCCUGAAGAGCUUUGGUUUUUUG [C28G A29G G42U G44A A83U C124U]  -7.08
2. GACCAAUCUGCCCUCAGAGCUCGAGAAGAUCUUCGGCUGCAGAGGAGGCAGGCUUCGGUGGCGCGAUAGCGCCAACGUCCUCAACCUCCACUGCAUCCCACCACAUGAUGAUGCCUGAAGAGCCUUGGUUUUUUG [C28G A37C A91C]  -6.42
3. GACCAAUCUGCCCUCAGAGCUCGAGAAAAUCUUCGGAUGCAGAGGAGGCAGGCUUCGGUGGCGCGAUAGCGCCAACGUCCUCAACCUCCAAUGCAUCCCACCACAUGAUGAUGCCUGAAGAGCCUUCGUUUUUUG [C28A G127C]  -5.95
4. GACCAAUCUGCCCUCAGAGCUCGAGAAGAUCUUCGGUUGCAUAGGAGGCAGGCUUAGGUGGCGCGAUAGCGCCAACGUCCUCAACCUCCAAUGCAUCCCACCACAAGAUGAUAGCUGAAGAGCCUUGGUUUUUUG [C28G A37U G42U C56A U106A G113A C114G]  -5.89
5. GACCAAUCUGCCCUCAGAGCUCGAGAAAAUCUUCGGAUGCAGAGGAGGCAGGCUUCGGUGGCGCGAUAGCGCCAACGUCUUCAACCUCCAAUGCAUCCCACCACAUGAUGGUGCCUGAAGAGCCUUGGUUUUUUG [C28A C80U A111G]  -5.64
6. GACCAAUCUGCCCUCAGAGCUCGAGAAAAUCUUCGGAGGCAGAGGAGGCAGGCUUCGGUAGCGCGAUAGCGCCAACGUCCUCAACCUCCAAUGCAUCCCACCACAUGAUGAUGCCUGAAGAGCCUUGGUUUUUUG [C28A U38G G60A]  -5.64
7. GACCAAUCUGCCCUCAGAGCUCGAGAAAAUCUUCGGAUGCAGAGGAGGCAGGCUGCGGUGGCGCGAUAGCACCAACGUCCUCAACCUCCAAUGCAUCCCACCACAUGAUGAUGCCUGAAGAGCCUUGGUUUUUUG [C28A U55G G71A]  -5.6
8. GACCAAUCUGCCCUCAGAGCUCGAGAAAAUCUUCGGAUGCAGAGGAGGCAGGCUUCGGUGGCGCGAUAGCGCCAACGUCCUCAACCUUCAAUGCAUCCCAUCACAUGAUGAUGCCUGAAGAGCCUUGGUUUUUUG [C28A C88U C101U]  -5.29
9. GACCAAUCUGCCCUCAGAGCUCGAGAAAAUCUUCGGAUGCAGAGGAGGCAGGCUUCGGUGGCGCGAUAGCGCCAACGUCCUCAACCUCCAAUGCAUCCCACCACAUGAUCAUGCUUGAAGAGCCUUGGUUUUAUG [C28A G110C C115U U133A]  -5.27
10. GACCAAUCUGCCCUCAGAGCUCGAGAAGCUCUUCGGAUGCAGAGGAGGCAGGCUUCGGUGGCGCGAUAGCGCCAACGUCCUCAACCUCCAAUGCGUCUCACCACAUAAUGAAGCCUGAAGAGCCUUGGUUUUUUG [C28G A29C A95G C98U G107A U112A]  -5.27
11. GACCAAUCUGCCCUCAGAGCUCGAGAAGAUCUUCGGAUGCAGGGAAGGCAGGCUUCGGUGGCGCGAUAGCGCCAACGUACUCAACCUCCAAUGCAUCCCACCACAUGAUGAUGCUUUAAGAGCCUUGGUUUUUUG [C28G A43G G45A C79A C115U G117U]  -5.19
12. GACCAAUCUGCCCUCAGAGCUCGAGAAAAUCUUCGGAUUCAGAGGAGGCAGGCCUCGGUGGCGCGAUAGCGCCAACGUCCUCAACCUCCAAUGCAUCCCACCACAUGAUGAUGCCUGAAGAGCCUUGGUUUUUUG [C28A G39U U54C]  -4.55
13. GACCAAUCUGCCCUCAGAGCUCGAGAAAAUCUUCGGAUGCAGAGGAGGCAGGCUUCGGUGGCGCGAUAGCGCCAACGUCCUCAACCUCCAAUGCAUCCCACCACAUGAUGAUGCCUAAAGAGCCUUGGUUUUUUG [C28A G117A]  -4.5
14. GACCAAUCUGCCCUCAGAGCUCGAGAAGAUCUUCGGAUGCAGAGGAGGCAGGCUUCGGUGGCGCGAUAGCGCCAACGUCCUCAUCCUCCAAUGCAUCCCACCUCAUGAUCAUGCCUGAAGAGCCUUGGUUUUUUG [C28G A84U A103U G110C]  -4.22
15. GACCAAUCUGCCCUCAGAGCUCGAGAAAAUCUUCGGAUGCAGAGGAGGCAGGCUUCGGUGUCGCGAUAGCGCCAACGUCCUCAACCUCCAAUGCAUCCCACCACAUGAUGAUGCCUGAAGAGCCUUGGUUUUUUG [C28A G61U]  -3.73
16. GACCAAUCUGCCCUCAGAGCUCGAGAAGAUCUUCGGCUGCAGAGGAGGCAGGCUUCGGUGGCGCGAUAGCGCCAACGUCCUCAACCUCCAAUGCAUCCCACCACAUGAUGAUGCCUGAAGAGCCUUGGUUUUUUG [C28G A37C]  -3.7
17. GACCAAUCUGCCCUCAGAGCUCGAGAAAAUCUUCGGAUGCAGAGGAGGCAGGCUUCGGUGGCGCGAUAGCGCUAACGUCCUCAACCUCCAAUGCAUCCCACCACAUGAUGAUGCCUGAAGAGCCUUGGUUUUUUG [C28A C73U]  -3.04
18. GACCAAUCUGCCCUCAGAGCUCGAGAAGAUCUUCGGGUGCAGAGGAGACAGGCUUCGGUGGCGCGAUAGCGCCAACGUCCUCAACCUCCAAUGCAUCCCACCAUAUGAUGAUGCCUGAAGAGACUUGGUUUUUUG [C28G A37G G48A C104U C123A]  -2.85
19. GACCAAUCUGCCCUCAGAGCUCGAGAAGAUCUUCGGUUGCAGAGGAGGCAGGCUUCGGUGGCGCGAUAGCGCCAACGUCCUCAACCUCCAAUGCAUCCCACCACAUGAUGAUGCCUGAAGAGCCUUGGUUUUUUG [C28G A37U]  -2.45
20. GACCAAUCUGCCCUCAGAGCUCGAGAAAAUCUUCGGAUGCAGAGGAGGCAGGCUUCGGUAGCGCGAUAGCGCCAACGUCCUCAACCUCCAAUGCAUUCCACCACAUGAUGAAGCCUGAAGAGCCUUGGUUUUUUG [C28A G60A C97U U112A]  -2.26
21. GACCAAUCUGCCCUCAGAGCUCGAGAAGAUCUUCGGAUGCAGAGGAGGCGGGCUUCGGUGGCGCGAUAUCGCCAACGUCCUCAACCUCCAAUGCAUCCCACCACAUGAUGAUGCCUGAAGAGCCUUGGUUUUUUG [C28G A50G G69U]  -0.817
